The values below come from PMC4205851, “Protein-tyrosine phosphorylation interaction network in Bacillus subtilis reveals new substrates, kinase activators and kinase cross-talk” (Frontiers in Microbiology, 2014).

For the experiment, the target named is T1, Strep-tagged MinD (B. subtilis 168, UniProt Q01464 1-268).
T1 construct: MinD ATPase of B. subtilis 168, PCR fragment in a pQE-30 vector with the His6-tag replaced by the strep-tag; Pre-labelled with Strep-Tactin conjugated to horse radish peroxidase for the far-Western
T1 sequence (looked up): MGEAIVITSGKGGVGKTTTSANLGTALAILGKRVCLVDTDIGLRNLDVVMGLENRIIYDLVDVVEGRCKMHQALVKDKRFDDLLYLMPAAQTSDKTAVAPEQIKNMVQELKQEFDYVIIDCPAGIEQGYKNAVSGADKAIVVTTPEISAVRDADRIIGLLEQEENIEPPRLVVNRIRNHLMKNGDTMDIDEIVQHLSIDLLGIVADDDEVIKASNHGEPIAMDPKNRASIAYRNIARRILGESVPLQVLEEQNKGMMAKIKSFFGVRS
In words: far-Western; PtkA, MinC and TkmA separated by 12% SDS-PAGE, transferred to nitrocellulose and renatured; probed with Strep-tagged MinD labelled with Strep-Tactin-HRP in TBS-T (50 mM Tris pH 7.5, 150 mM NaCl, 0.05% Tween 20) with 1% BSA; AEC staining. The conditions noted are these: both partners purified.

B1: MinC (purified) (natural protein, B. subtilis 168, UniProt Q01463 1-226, looked up)
chain: MKTKKQQYVTIKGTKNGLTLHLDDACSFDELLDGLQNMLSIEQYTDGKGQKISVHVKLGNRFLYKEQEEQLTELIASKKDLFVHSIDSEVITKKEAQQIREEAEIISVSKIVRSGQVLQVKGDLLLIGDVNPGGTVRAGGNIFVLGSLKGIAHAGFNGNNQAVIAASEMLPTQLRINHVLNRSPDHIQKGNEMECAYLDTDGNMVIERLQHLAHLRPDLTRLEGGM
notes: MinC of B. subtilis 168
As to B1, the binding result was “binds”.
